From publication doi:10.1101/2025.10.15.682645 (bioRxiv, 2025)

T1: GFP-GST-Rad54 S816DS817D (Saccharomyces cerevisiae, UniProt P32863 1-898, S816D | S817D)
T1 sequence (looked up): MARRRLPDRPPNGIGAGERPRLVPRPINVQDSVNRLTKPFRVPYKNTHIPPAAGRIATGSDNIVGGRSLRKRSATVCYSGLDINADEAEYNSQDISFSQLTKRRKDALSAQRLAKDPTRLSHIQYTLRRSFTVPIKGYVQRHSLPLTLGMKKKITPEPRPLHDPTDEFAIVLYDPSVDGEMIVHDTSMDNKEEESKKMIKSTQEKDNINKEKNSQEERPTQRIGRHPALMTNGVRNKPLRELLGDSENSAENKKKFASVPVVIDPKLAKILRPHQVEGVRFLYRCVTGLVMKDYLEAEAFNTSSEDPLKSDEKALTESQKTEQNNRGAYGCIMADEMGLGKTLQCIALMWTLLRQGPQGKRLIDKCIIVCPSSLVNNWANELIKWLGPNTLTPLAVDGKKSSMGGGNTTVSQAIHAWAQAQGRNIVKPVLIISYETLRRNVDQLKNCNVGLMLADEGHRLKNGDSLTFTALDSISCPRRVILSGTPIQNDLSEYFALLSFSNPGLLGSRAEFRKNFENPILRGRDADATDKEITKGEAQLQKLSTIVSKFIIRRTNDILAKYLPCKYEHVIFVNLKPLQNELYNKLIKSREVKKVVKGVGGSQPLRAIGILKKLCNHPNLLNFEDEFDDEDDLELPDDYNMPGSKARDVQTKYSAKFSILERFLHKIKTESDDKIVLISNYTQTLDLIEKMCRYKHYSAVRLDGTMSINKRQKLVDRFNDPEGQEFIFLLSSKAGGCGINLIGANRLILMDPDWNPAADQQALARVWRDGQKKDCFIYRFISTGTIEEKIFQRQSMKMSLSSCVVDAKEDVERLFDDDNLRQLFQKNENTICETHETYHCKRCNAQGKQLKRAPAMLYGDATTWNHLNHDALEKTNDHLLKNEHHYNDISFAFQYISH

B1: GFP-GST-Rad54 (enzyme, Saccharomyces cerevisiae, UniProt P32863 1-898, looked up)
chain: MARRRLPDRPPNGIGAGERPRLVPRPINVQDSVNRLTKPFRVPYKNTHIPPAAGRIATGSDNIVGGRSLRKRSATVCYSGLDINADEAEYNSQDISFSQLTKRRKDALSAQRLAKDPTRLSHIQYTLRRSFTVPIKGYVQRHSLPLTLGMKKKITPEPRPLHDPTDEFAIVLYDPSVDGEMIVHDTSMDNKEEESKKMIKSTQEKDNINKEKNSQEERPTQRIGRHPALMTNGVRNKPLRELLGDSENSAENKKKFASVPVVIDPKLAKILRPHQVEGVRFLYRCVTGLVMKDYLEAEAFNTSSEDPLKSDEKALTESQKTEQNNRGAYGCIMADEMGLGKTLQCIALMWTLLRQGPQGKRLIDKCIIVCPSSLVNNWANELIKWLGPNTLTPLAVDGKKSSMGGGNTTVSQAIHAWAQAQGRNIVKPVLIISYETLRRNVDQLKNCNVGLMLADEGHRLKNGDSLTFTALDSISCPRRVILSGTPIQNDLSEYFALLSFSNPGLLGSRAEFRKNFENPILRGRDADATDKEITKGEAQLQKLSTIVSKFIIRRTNDILAKYLPCKYEHVIFVNLKPLQNELYNKLIKSREVKKVVKGVGGSQPLRAIGILKKLCNHPNLLNFEDEFDDEDDLELPDDYNMPGSKARDVQTKYSAKFSILERFLHKIKTESDDKIVLISNYTQTLDLIEKMCRYKHYSAVRLDGTMSINKRQKLVDRFNDPEGQEFIFLLSSKAGGCGINLIGANRLILMDPDWNPAADQQALARVWRDGQKKDCFIYRFISTGTIEEKIFQRQSMKMSLSSCVVDAKEDVERLFSSDNLRQLFQKNENTICETHETYHCKRCNAQGKQLKRAPAMLYGDATTWNHLNHDALEKTNDHLLKNEHHYNDISFAFQYISH
B2: GFP-GST-Rad54 S816AS817A (enzyme, Saccharomyces cerevisiae, UniProt P32863 1-898, looked up)
chain: MARRRLPDRPPNGIGAGERPRLVPRPINVQDSVNRLTKPFRVPYKNTHIPPAAGRIATGSDNIVGGRSLRKRSATVCYSGLDINADEAEYNSQDISFSQLTKRRKDALSAQRLAKDPTRLSHIQYTLRRSFTVPIKGYVQRHSLPLTLGMKKKITPEPRPLHDPTDEFAIVLYDPSVDGEMIVHDTSMDNKEEESKKMIKSTQEKDNINKEKNSQEERPTQRIGRHPALMTNGVRNKPLRELLGDSENSAENKKKFASVPVVIDPKLAKILRPHQVEGVRFLYRCVTGLVMKDYLEAEAFNTSSEDPLKSDEKALTESQKTEQNNRGAYGCIMADEMGLGKTLQCIALMWTLLRQGPQGKRLIDKCIIVCPSSLVNNWANELIKWLGPNTLTPLAVDGKKSSMGGGNTTVSQAIHAWAQAQGRNIVKPVLIISYETLRRNVDQLKNCNVGLMLADEGHRLKNGDSLTFTALDSISCPRRVILSGTPIQNDLSEYFALLSFSNPGLLGSRAEFRKNFENPILRGRDADATDKEITKGEAQLQKLSTIVSKFIIRRTNDILAKYLPCKYEHVIFVNLKPLQNELYNKLIKSREVKKVVKGVGGSQPLRAIGILKKLCNHPNLLNFEDEFDDEDDLELPDDYNMPGSKARDVQTKYSAKFSILERFLHKIKTESDDKIVLISNYTQTLDLIEKMCRYKHYSAVRLDGTMSINKRQKLVDRFNDPEGQEFIFLLSSKAGGCGINLIGANRLILMDPDWNPAADQQALARVWRDGQKKDCFIYRFISTGTIEEKIFQRQSMKMSLSSCVVDAKEDVERLFAADNLRQLFQKNENTICETHETYHCKRCNAQGKQLKRAPAMLYGDATTWNHLNHDALEKTNDHLLKNEHHYNDISFAFQYISH
B3: Rad51 (natural protein, UniProt P25454 1-400, looked up)
chain: MSQVQEQHISESQLQYGNGSLMSTVPADLSQSVVDGNGNGSSEDIEATNGSGDGGGLQEQAEAQGEMEDEAYDEAALGSFVPIEKLQVNGITMADVKKLRESGLHTAEAVAYAPRKDLLEIKGISEAKADKLLNEAARLVPMGFVTAADFHMRRSELICLTTGSKNLDTLLGGGVETGSITELFGEFRTGKSQLCHTLAVTCQIPLDIGGGEGKCLYIDTEGTFRPVRLVSIAQRFGLDPDDALNNVAYARAYNADHQLRLLDAAAQMMSESRFSLIVVDSVMALYRTDFSGRGELSARQMHLAKFMRALQRLADQFGVAVVVTNQVVAQVDGGMAFNPDPKKPIGGNIMAHSSTTRLGFKKGKGCQRLCKVVDSPCLPEAECVFAIYEDGVGDPREEDE

Assays:
Assay in all cases: single-molecule DNA curtains
[1] = biological target: B3
[2] = biological target: B2
[3] = biological target: T1, GFP-GST-Rad54 S816DS817D
[4] = biological target: B1

Binder	fold change of Rad54 molecules per PSC, flow off against constant flow [1]	binding result [2]	binding result [3]	binding result [4]
B1	2 fold			
B2	2 fold			
B3		binds	binds	binds
